Reference: patent publication US9573983B2, “Compositions including I-domain antigen conjugate compounds and methods for treatment of autoimmune disorders” (University of Kansas, priority 2012, dated 2017)
Where “and” joins values, the source holds several entries; their conditions need not be identical. Equal entries are not always repeated.

Key:
[1] = system: mouse EAE model; test: Suppression of EAE in PLP139-151/CFA-immunized mice (Example 1); format: in vivo, female inbred SJL/J mice
Procedure: Female inbred SJL/J mice, 5-7 weeks old, were randomly divided into different groups. All mice were immunized with PLP139-151 in Freund's complete adjuvant (CFA) to induce EAE, as reported previously (3, 4). The PLP/CFA emulsion (50 μL per site) was administered to four separate regions above the shoulder and on the flanks. In addition, 200 ng of pertussis toxin (List Biological Laboratories Inc., Campbell, Calif.) was injected intraperitoneally on day 0 and 2.
After disease stimulation, one group of mice received intravenous (i.v.) injections of 26 nmol/injection/day of the conjugate IDAC on days 4 and 7. The second and third groups of mice received i.v. injections of 100 nmol/injection/day of Ac-PLP-BPI-NH2-2 and 100 microliter of PBS, respectively, on days 4, 7, and 10. The animals were weighed and observed daily. Disease progression was evaluated observed using a blinded method as reported previously (3, 4). The clinical scores were rated using the following scale: 0—no clinical signs of disease; 1—tail weakness or limp tail; 2—paraparesis (weakness or incomplete paralysis of one or two hind limbs); 3—paraplegia (complete paralysis of two hind limbs); 4—paraplegia with forelimb weakness or paralysis; and 5—moribund or dead.
Statistical differences among the groups in clinical disease scores were determined by calculating the average score for each mouse from the day of disease onset to day 20 by One-way Analysis of Variance followed by Fisher's least significant difference using StatView (SAS Institute, Cary, N.C.). Statistical differences among the groups in body weight were also analyzed in the same way. The presence of significant difference is denoted with p-values of <0.05 or <0.001.

[2] = system: EAE mouse model; test: Suppression of EAE, prophylactic and vaccine-like treatment (Example 2); format: in vivo, SJL/J female mice; conditions: for onset of disease (clinical scores): IDAC molecules; for body weight change: p<0.05, days 12-24; for change in body weight: p<0.005, days 12-24
Procedure: Six-to-eight week old SJL/J female mice were immunized subcutaneously with 200 μg PLP139-151 peptide in a 0.2 ml emulsion consisting of equal volumes of PBS and complete Freund's adjuvant (CFA) containing killed mycobacterium tuberculosis strain H37RA at a final concentration of 4 mg/ml (Difco, Detroit, Mich.). The PLP/CFA emulsion was administered to regions above the shoulder and the flanks (total of 4 sites, 50 μl at each injection site). In addition, 200 ng of pertussis toxin was injected intraperitoneally on the day of immunization (day 0) and 2 days post-immunization.
The mice then received either intravenous or subcutaneous injections of IDAC (10 or 26 nmol/injection) or peptides (100 nmol/injection for Ac-PLP-BPI-NH2-2 or 50 nmol/injection/mouse for Ac-PLP-cIBR1-NH2). The prophylactic disease suppression was carried out with subcutaneous or intravenous injections of IDAC molecules on days 4 and 7, or BPI molecules on days 4, 7, and 10. Mice receiving vaccine-like treatment were given subcutaneous injections of IDAC and BPI molecules at 11, 8, and 5 days prior to the induction of disease. As negative controls, mice were treated with PBS, 1-domain, and GMB-I-domain. Disease progression was evaluated by monitoring the change in weight of the mice and clinical scoring based on the severity of nerve damage ranging from 0 to 5: 0—no clinical symptoms of disease; 1—tail weakness or limp tail; 2—paraparesis (weakness or partial paralysis of one or two hind limbs); 3—paraplegia (complete paralysis of two hind limbs); 4—paraplegia with forelimb weakness or paralysis; 5—moribund (at this point, the affected mice were euthanized).
(§1) Statistical differences among the groups in clinical disease scores were determined by calculating the average score for each mouse from day 12 to day 17 by one-way analysis of variance followed by Fisher's least significant difference. Statistical differences in body weight among groups were also analyzed in the same fashion, but from day 12 to day 24. Comparison of cytokine concentrations was also performed by one-way analysis of variance. All analyses were performed using StatView (SAS Institute, Cary, N.C.).

[3] = system: splenocytes; test: Cytokine levels in vitro from splenocytes of treated EAE mice (Q-Plex ELISA); format: cell-based, female SJL/J (H-2^s) mice; conditions: IDAC-3 26 nmol/injection s.c. days 4 and 7
Procedure: Representative spleens for each group (IDAC-3 or PBS) from Study 2 were harvested from female SJL/J (H-2^s) mice on days 13 and 35. Splenocytes were dispersed by gently smashing the spleen using the coarse portion of a 1 ml syringe in a petri dish containing RPMI 1640 medium (10% FBS, […]). The cells were then filtered through a 40 micrometer strainer. After centrifugation, the red blood cells were lysed using “ACK lysis buffer,” and the remaining white blood cells were washed three times with medium. Splenocytes (5×10^6 cells/ml) were cultured in parallel in the presence of 20 μM PLP and blank RPMI medium. Supernatants were collected at a 72 h time-point for the measurement of cytokine levels. The samples were then analyzed using a fully quantitative ELISA-based Q-Plex™ Mouse Cytokine-Screen (Quansys Biosciences, Logan, Utah).
as §1

[4] = i.v. 26 nmol/injection days 4 and 7, vs PBS
[5] = i.v. 26 nmol/injection days 4 and 7, vs PBS, p<0.0005, days 12-17
[6] = 3 injections, vaccine-like s.c.
[7] = s.c. 26 nmol/injection days 4 and 7, vs PBS
[8] = vaccine-like s.c. 10 nmol on days -11, -8, -5

B1: (HSLGKWLGHPDKFC)n-linker-I-domain (conjugate, listed as Homo sapiens)
chain 1: HSLGKWLGHPDKFC
chain 2: MGNVDLVFLFDGSMSLQPDEFQKILDFMKDVMKKLSNTSYQFAAVQFSTSYKTEFDFSDYVKRKDPDALLKHVKHMLLLTNTFGAINYVATEVFREELGARPDATKVLIIITDGEATDSGNIDAAKDIIRYIIGIGKHFQTKESQETLHKFASKPASEFVKILDTFEKLKDLFTELQKKIY
modifications: maleimide linker conjugation, ~2.5 peptides; Chemically synthesized signal 1 moiety peptide with amino acids 139-151 of PLP protein modified with a terminal cysteine
notes: PLP-Cys-OH peptides conjugated via maleimide linkers to lysine residues of LFA-1 I-domain; average 2.5 peptides per I-domain
clinical disease scores (suppression of EAE) ([1]; i.v., IDAC 26 nmol/injection days 4, 7, Ac-PLP-BPI-NH2-2 100 nmol/injection days 4, 7, 10, vs PBS, p<0.0001, days 12-17): significant efficacy to suppress the progress of EAE
incidence of disease ([1]; i.v., IDAC 26 nmol/injection days 4, 7, Ac-PLP-BPI-NH2-2 100 nmol/injection days 4, 7, 10, vs PBS, p<0.0001, days 12-24): delayed
change in body weight ([1]; i.v., IDAC 26 nmol/injection days 4, 7, vs PBS): prevent the changes of bodyweights of the mice significantly
efficacy compared with the BPI molecule ([1]; two i.v. injections of 26 nmol IDAC vs three of 100 nmol Ac-PLP-BPI-NH2-2): appeared less than that of the BPI molecule
disease incidence [2, 4]: delays in disease incidence
onset of disease (clinical scores) [2, 4]: delayed the onset of disease
clinical scores (suppression of EAE) [2, 5]: significantly better at suppressing EAE than PBS
body weight change [2, 4]: significantly more effective than PBS in suppressing disease

B2: (Ac-HSLGKWLGHPDKFC-NH2)n-linker-I-domain (conjugate, listed as Homo sapiens)
chain 1: HSLGKWLGHPDKFC
chain 2: MGNVDLVFLFDGSMSLQPDEFQKILDFMKDVMKKLSNTSYQFAAVQFSTSYKTEFDFSDYVKRKDPDALLKHVKHMLLLTNTFGAINYVATEVFREELGARPDATKVLIIITDGEATDSGNIDAAKDIIRYIIGIGKHFQTKESQETLHKFASKPASEFVKILDTFEKLKDLFTELQKKIY
modifications: Ac, NH2 caps; maleimide linker; Chemically synthesized signal 1 moiety peptide with amino acids 139-151 of PLP protein modified with a terminal cysteine
notes: Ac-PLP-Cys-NH2 (capped) peptides conjugated via maleimide linkers to lysine residues of I-domain
maximum toxic concentration (estimated therapeutic window) [2, 6]: 26 nmol
minimum effective concentration (estimated therapeutic window) [2, 6]: 10 nmol
clinical scores, IDAC-3 compared with IDAC-1 ([2]; i.v. 26 nmol/injection days 4 and 7, p<0.005, days 12-17): better than IDAC-1 in suppressing EAE
disease incidence [2, 4]: delays in disease incidence
onset of disease (clinical scores) [2, 4]: delayed the onset of disease
clinical scores (suppression of EAE) [2, 5]: significantly better at suppressing EAE than PBS
body weight change [2, 4]: significantly more effective than PBS in suppressing disease
disease incidence [2, 7]: significantly more efficacious than PBS in suppressing EAE
clinical scores (suppression of EAE) ([2]; s.c. 26 nmol/injection days 4 and 7, vs PBS, p<0.005, days 12-17): significantly more efficacious than PBS in suppressing EAE
change in body weight [2, 7]: significantly more efficacious than PBS in suppressing EAE
anaphylaxis [2, 8]: did not result in anaphylaxis
efficacy of low dose compared with 26 nmol dose [2, 8]: not as effective as the 26 nmol dose
efficacy of high dose compared with other groups ([2]; vaccine-like s.c. 26 nmol/injection days -11, -8, -5, four animals, no statistical analysis): seemed to be better than the lower dose (10 nmol/injection) group and similar to the Ac-PLP-BPI-NH2-2-treated group
toxic effect / adverse events (mice affected) ([2]; vaccine-like s.c. 26 nmol/injection, third injection (day -5)): two of six mice and 2 of the 6 mice
potency compared with Ac-PLP-BPI-NH2-2 ([2]; vaccine-like s.c. days -11, -8, -5, IDAC-3 10 nmol/injection vs Ac-PLP-BPI-NH2-2 100 nmol/injection): less potent than Ac-PLP-BPI-NH2-2
clinical scores (suppression of EAE) ([2]; vaccine-like s.c. days -11, -8, -5, IDAC-3 10 nmol/injection, Ac-PLP-BPI-NH2-2 100 nmol/injection, vs PBS, p<0.005, days 12-17): significantly better clinical scores
change in body weight ([2]; vaccine-like s.c. days -11, -8, -5, IDAC-3 10 nmol/injection, Ac-PLP-BPI-NH2-2 100 nmol/injection, vs PBS): significantly better
onset of disease (incidence of disease) ([2]; vaccine-like s.c., IDAC-3 26 nmol/injection days -11, -8, Ac-PLP-BPI-NH2-2 100 nmol/injection days -11, -8, -5): Delay in the onset of disease
relapse of disease (long-term effect) ([2]; vaccine-like s.c., IDAC-3 26 nmol/injection days -11, -8, Ac-PLP-BPI-NH2-2 100 nmol/injection days -11, -8, -5, days 45-55): long-term effect in suppressing relapse of the disease
clinical scores (suppression of EAE) ([2]; vaccine-like s.c., IDAC-3 26 nmol/injection days -11, -8, vs PBS, p<0.0001, days 12-17 and 45-55): suppressed EAE significantly better than PBS
change of body weight ([2]; vaccine-like s.c., IDAC-3 26 nmol/injection days -11, -8, vs PBS, p<0.0001, days 12-24): suppressed EAE significantly better than PBS
IL-5 level compared to PBS-treated group ([3]; day 13): no significant difference
IL-10 level ([3]; day 13): could not be detected
IL-2 level, PBS-treated vs IDAC-3-treated group ([3]; day 13, p<0.05): IL-2 cytokine levels were higher than in the IDAC-3-treated group
IL-2 level, PBS-treated vs IDAC-3-treated group ([3]; day 35): no significant difference
IL-17 level compared to PBS-treated group ([3]; day 35, p<0.0001): fourfold lower
IL-5 level compared to PBS-treated group ([3]; day 35, p<0.0005): significantly higher
IL-12 level compared to PBS-treated group ([3]; day 35, p<0.005): significantly lower
IL-10 level compared to PBS group ([3]; day 35, p<0.05): significantly higher levels

B3: I-domain: LFA-1 I-domain protein, SEQ ID NO: 1; negative control and carrier protein (protein, listed as Homo sapiens)
chain: MGNVDLVFLFDGSMSLQPDEFQKILDFMKDVMKKLSNTSYQFAAVQFSTSYKTEFDFSDYVKRKDPDALLKHVKHMLLLTNTFGAINYVATEVFREELGARPDATKVLIIITDGEATDSGNIDAAKDIIRYIIGIGKHFQTKESQETLHKFASKPASEFVKILDTFEKLKDLFTELQKKIY
suppression of progress of EAE (clinical score, change in body weight, incidence of disease) ([2]; two i.v. injections, 26 nmol/injection, days 4 and 7, vs PBS): neither the I-domain nor GMB-I-domain significantly suppressed the progress of EAE
onset of disease ([2]; two i.v. injections, 26 nmol/injection, days 4 and 7, vs PBS, I-domain controls): slight delay in the onset of the disease
